B1: SP01P (VHH)
VHH: EVQLVESGGGLAQAGGSLRLSCVASGNIDSANGMAWYRQAPGKQRELVAHITSGTSYYVASVEGRFTISRANAKDTWYLQMNSLKPEDTGVYYCFPIGLSAHWSQGTQVTVSS
B2: SP20P (VHH)
VHH: EVQLVESGGGLVQAGGSLRLSCVISGRTSPTYPMGWFRQSPGNEREFVASINWSGGWRNYADSVKDRFTISRDDAKNTVYLQMNSLKPEDTAVYYCARGQYSSGTPVYAHEYAYWGQGTQVTVSS
B3: SP14P (VHH)
VHH: EVQLVESGGGLVQAGDSLRLSCVVSGLTFSRYGMGWFRQATGKEREFVGGISVGSSGTMYPNSVKGRFTISRDNAKSTVYLQMNSLKPEDTAVYFCAAIDQGSFVQQRDYRYWGQGTQVTVSS
B4: SP02P (VHH)
VHH: EVQLVESGGGLVQAGGSLRLSCAASESISSIEQMGWFRQAPGKQRALVAINTYGGRTVYTNSVEGRFTMSRDSAKNMVYLQMTSLEPEDTAVYYCYAQTTAWRGGVWGQGTQVTVSS
B5: SP13P (VHH)
VHH: EVQLVESGGGLVQPGGSLRLSCAASESIFSINYMAWYRQAPGKQRELVAFSIDGSSTNYVDSVRGRFTASRDNAENTLYLQMNSLKPEDTAVYYCYAQGNTWAAGVWGQGTQVTVSS
B6: SP05P (VHH)
VHH: EVQLVESGGGLVQAGGSLRLSCAASGRTSFSGYAMAWFRQAPGKERDFVASITWSYGYTYYTDSAQGRFTISRDSAKNTVYLEMNSLKPEDTAVYYCAADPKASRFRILREYAYWGQGTQVTVSS
B7: SP36P (VHH)
VHH: EVQLVESGGGLVQAGGSLRLSCTPSITTAGTTIMAWFRQAPGNEREFVAAIWGSKTAYGDSMKGRLTISRDNVRDNGQKTVFLQMNNLQLQDTATYYCAASSGGYVHSSTSYEIWGRGTQVTVSS
B8: SP31P (VHH)
VHH: EVQLVESGGGLVQAGGSLRLSCAASRGTFGTYIMGWFRQAPGKEREFVAAISWRGANTYYGYSVKGRFTISRDNAKNTMYLQMADLKPEDTADYYCGVHLNGTPYYYASGYRYWGQGTQVTVSS
B9: SP28P (VHH)
VHH: EVQLVESGGGLVQAGGSLRLSCAASGSIVSFNGINWYRQAPGKQREWVGGITQGGNTMYADSVRGRFTISRDNTKNTMYLQMNSLKPEDTAVYYCRRPPVASWGQGTQVTVSS
B10: SP26P (VHH)
VHH: EVQLVESGGGLVQAGGSLRLSCAASGRSFSSSVMGWFRQTPGKEREFVAATRWTAASTHYADSVKGRFTISRDHAENAVFLQMNSLKPEDTAVYYCAAGNYLDTAQYRYNYWGQGTQVTVSS
modifications: In the competition assay the reporter copy carried IRDye800 on the C-terminal cysteine, which is not in the letters.
B11: SP30P (VHH)
VHH: B8 VHH with Y32D
B12: SP27P (VHH)
VHH: EVQLVESGGGLVQIGDSLRLSCAASGGTFNRYGMGWFRQAPGKEREFVAAIRWDGVDTNYADFVKGRFTISRYNAKNTAYLQMNSLKPEDTAVYYCAADRRGLYTKHAHRYDYWGQGTQVTVSS

Where a chain is given by its changes, count along the chain named.

For orientation: Kd means the constant that tells how readily two partners part at equilibrium.

For the first test, the target named is T1, recombinant hPDGFRB ectodomain (human, UniProt P09619 33-532).
T1 chain: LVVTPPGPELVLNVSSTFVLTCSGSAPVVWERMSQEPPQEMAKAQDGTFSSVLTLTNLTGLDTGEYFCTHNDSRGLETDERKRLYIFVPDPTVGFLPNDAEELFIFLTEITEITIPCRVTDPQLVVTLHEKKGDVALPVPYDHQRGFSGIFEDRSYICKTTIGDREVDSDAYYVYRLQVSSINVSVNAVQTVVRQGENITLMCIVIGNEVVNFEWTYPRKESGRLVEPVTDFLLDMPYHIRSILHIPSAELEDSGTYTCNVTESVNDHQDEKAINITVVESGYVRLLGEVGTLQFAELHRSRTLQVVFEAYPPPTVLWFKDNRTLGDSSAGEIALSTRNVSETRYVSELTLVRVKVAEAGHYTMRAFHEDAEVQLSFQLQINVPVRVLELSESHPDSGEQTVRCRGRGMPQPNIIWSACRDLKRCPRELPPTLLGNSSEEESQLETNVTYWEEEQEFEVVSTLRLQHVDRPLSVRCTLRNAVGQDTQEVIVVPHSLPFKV
Briefly: binding to immobilized ectodomain.
For the molecule B1, the Kd amounted to 20.4 nM.

In the case of B2, the Kd turned out to be 3.8 nM.

On to B3, for which the Kd came to 8.6 nM.

As for B4, the dissociation constant (Kd) is 6.2 nM.

On to B5, for which the Kd turned out to be 9.3 nM.

Turning to B6, the Kd came out at 9.2 nM.

For the next test, the target named is full-length human PDGFRB on cells (human, UniProt P09619 33-1106). Briefly: cell binding; SCC-hPDGFRβ cells.
B1 displayed a Kd of 7.8 nM.

In turn, B5 registered a dissociation constant Kd of 10.4 nM.

A further test addresses T2, full-length rat PDGFRB on cells (rat, UniProt Q05030 32-1097).
T2 chain: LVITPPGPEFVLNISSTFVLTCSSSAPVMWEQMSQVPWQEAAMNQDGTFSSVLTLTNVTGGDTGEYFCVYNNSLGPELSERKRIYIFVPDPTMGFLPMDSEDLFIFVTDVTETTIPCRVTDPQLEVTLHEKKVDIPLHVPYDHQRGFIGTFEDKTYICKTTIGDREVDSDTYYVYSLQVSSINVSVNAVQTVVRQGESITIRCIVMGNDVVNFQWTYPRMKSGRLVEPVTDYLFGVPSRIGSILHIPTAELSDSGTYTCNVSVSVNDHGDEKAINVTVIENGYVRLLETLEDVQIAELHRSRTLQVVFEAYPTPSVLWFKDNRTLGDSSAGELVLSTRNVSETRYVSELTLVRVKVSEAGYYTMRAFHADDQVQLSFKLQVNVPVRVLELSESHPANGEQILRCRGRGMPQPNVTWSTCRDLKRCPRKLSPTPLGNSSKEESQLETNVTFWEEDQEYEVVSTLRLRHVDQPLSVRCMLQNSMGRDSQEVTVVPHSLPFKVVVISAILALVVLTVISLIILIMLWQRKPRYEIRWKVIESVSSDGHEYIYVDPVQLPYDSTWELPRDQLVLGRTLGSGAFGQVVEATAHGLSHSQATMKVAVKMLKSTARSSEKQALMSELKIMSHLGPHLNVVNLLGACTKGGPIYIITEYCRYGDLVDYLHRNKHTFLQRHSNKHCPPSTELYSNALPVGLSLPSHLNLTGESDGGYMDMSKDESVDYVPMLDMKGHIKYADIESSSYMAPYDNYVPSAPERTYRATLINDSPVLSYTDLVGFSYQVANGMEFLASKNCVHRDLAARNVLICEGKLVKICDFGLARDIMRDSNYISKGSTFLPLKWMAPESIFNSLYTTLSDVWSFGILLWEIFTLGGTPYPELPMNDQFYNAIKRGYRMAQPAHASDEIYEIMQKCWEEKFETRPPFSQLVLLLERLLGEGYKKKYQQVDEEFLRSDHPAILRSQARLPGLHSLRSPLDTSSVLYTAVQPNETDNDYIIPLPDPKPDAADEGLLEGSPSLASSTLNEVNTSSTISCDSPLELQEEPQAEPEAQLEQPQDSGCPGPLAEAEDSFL
Briefly: cell binding; SCC-rPDGFRβ cells.
B7: binding was put at a Kd of 76.6 nM.

B8 came in with a dissociation constant (Kd) of 31.8 nM.

In turn, B9 yielded a Kd of 0.5 nM.

In the case of B10, binding was put at a Kd of 0.3 nM.

The next test has as its target T3, recombinant rPDGFRB ectodomain (rat, UniProt Q05030 32-531).
T3 chain: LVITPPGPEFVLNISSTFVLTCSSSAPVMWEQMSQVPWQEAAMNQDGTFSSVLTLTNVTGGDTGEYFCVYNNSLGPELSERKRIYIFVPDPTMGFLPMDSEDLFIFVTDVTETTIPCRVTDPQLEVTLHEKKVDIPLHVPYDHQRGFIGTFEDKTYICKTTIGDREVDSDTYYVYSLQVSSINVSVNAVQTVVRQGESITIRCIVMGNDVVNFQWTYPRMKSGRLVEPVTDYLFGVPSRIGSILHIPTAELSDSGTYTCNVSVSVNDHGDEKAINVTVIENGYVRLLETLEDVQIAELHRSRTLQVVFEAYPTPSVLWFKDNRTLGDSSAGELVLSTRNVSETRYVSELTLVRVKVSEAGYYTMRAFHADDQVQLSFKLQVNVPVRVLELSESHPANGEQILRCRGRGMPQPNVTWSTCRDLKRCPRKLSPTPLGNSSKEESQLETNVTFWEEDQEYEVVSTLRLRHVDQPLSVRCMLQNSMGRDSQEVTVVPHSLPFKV
Description: binding to immobilized ectodomain.
In the case of B7, the Kd was determined as 31 nM.

On to B8, for which the Kd was 276 nM.

Turning to B11, the Kd amounted to 12.2 nM.

Consider B9, for which the Kd was 6 nM.

On to B12, for which the Kd is 25.5 nM.

Source of the values: patent US20240325562A1 (published 2024).
